Changes are numbered by the printed parent chain. In names and notes the source's numbering stands.
B1: murine platelet glycoprotein Ib alpha (GPIb alpha), on mouse platelets (receptor, UniProt O35930 17-734, looked up)
chain: QHTCSISKVTSLLEVNCENKKLTALPADLPADTGILHLGENQLGTFSTASLVHFTHLTYLYLDRCELTSLQTNGKLIKLENLDLSHNNLKSLPSLGWALPALTTLDVSFNKLGSLSPGVLDGLSQLQELYLQNNDLKSLPPGLLLPTTKLKKLNLANNKLRELPSGLLDGLEDLDTLYLQRNWLRTIPKGFFGTLLLPFVFLHANSWYCDCEILYFRHWLQENANNVYLWKQGVDVKDTTPNVASVRCANLDNAPVYSYPGKGCPTSSGDTDYDDYDDIPDVPATRTEVKFSTNTKVHTTHWSLLAAAPSTSQDSQMISLPPTHKPTKKQSTFIHTQSPGFTTLPETMESNPTFYSLKLNTVLIPSPTTLEPTSTQATPEPNIQPMLTTSTLTTPEHSTTPVPTTTILTTPEHSTIPVPTTAILTTPKPSTIPVPTTATLTTLEPSTTPVPTTATLTTPEPSTTLVPTTATLTTPEHSTTPVPTTATLTTPEHSTTPVPTTATLTTPEPSTTLTNLVSTISPVLTTTLTTPESTPIETILEQFFTTELTLLPTLESTTTIIPEQNSFLNLPEVALVSSDTSESSPFLNSDFCCFLPLGFYVLGLLWLLFASVVLILLLTWTWHVTPHSLDMEQSAALATSTHTTSLEVQRARQVTMPRAWLLFLQGSLPTFRSSLFLWVRPNGRVGPLVAGRRPSALSQGRGQDLLGTVGIRYSGHSL
notes: whole, on cells; also called murine GPIb alpha; murine platelets
B2: recombinant murine VWF-A1 protein, wild type (amino acid residues 1238 to 1471, made in bacteria, His tag) (ligand)
chain: QEPGGLVAPPTDAPVSSTTPYVEDTPEPPLHNFYCSKLLDLVFLLDGSSMLSEAEFEVLKAFVVGMMERLHISQKRIRVAVVEYHDGSRAYLELKARKRPSELRRITSQIKYTGSQVASTSEVLKYTLFQIFGKIDRPEASHITLLLTASQEPPRMARNLVRYVQGLKKKKVIVIPVGIGPHASLKQIRLIEKQAPENKAFLLSGVDELEQRRDEIVSYLCDLAPEAPAPTQPP
modifications: single intra-chain disulfide bond between residues 1272 and 1458
notes: Treated as one molecule; also called M VWF-A1; mouse VWF-A1; not shown: amino-terminal 10 amino acids (including 6x histidine) contributed by the vector pQE9
B3: recombinant murine VWF-A1 protein with 1326R>H (ligand)
chain: B2 chain with R89H
notes: also called mutated murine protein; not shown: amino-terminal vector-derived tag with 6x histidine
B4: recombinant murine VWF-A1 protein with the type 2B mutation I1309V (1309I>V) (ligand)
chain: B2 chain with I72V
notes: also called M VWF-A1 protein containing the type 2B mutation I1309V; not shown: amino-terminal vector-derived tag with 6x histidine
B5: recombinant human VWF-A1 protein with 1309I>V and 1324G>S (ligand)
chain: QEPGGLVVPPTDAPVSPTTLYVEDISEPPLHDFYCSRLLDLVFLLDGSSRLSEAEFEVLKAFVVDMMERLRVSQKWVRVAVVEYHDSSHAYIGLKDRKRPSELRRIASQVKYAGSQVASTSEVLKYTLFQIFSKIDRPEASRIALLLMASQEPQRMSRNFVRYVQGLKKKKVIVIPVGIGPHANLKQIRLIEKQAPENKAFVLSSVDELEQQRDEIVSYLCDLAPEAPPPTLPP
notes: also called doubly mutated protein; not shown: amino-terminal vector-derived tag with 6x histidine
B6: recombinant human VWF-A1 protein with 1309I>V and 1326H>R (ligand)
chain: B5 chain with S87G, H89R
notes: as for B5

Key:
[1] = biological target: T1, murine plasma VWF with the 1326R>H mutation (from homozygous VWF 1326R>H knock-in mice) (mouse, UniProt Q8CIZ8 764-2813); test: not told at this place
T1 construct: Plasma-derived multimeric VWF; also called R1326H mutant mouse VWF; mutant mouse plasma VWF

[2] = biological target: B1; test: panel B: coated beads on surface-immobilized murine platelets in flow, ln of bead tethering events against time; shear stress 2.0 dyn cm-2; R2 0.95
Procedure: (§1) The cellular off-rates are determined by plotting the natural log of the number of VWF-A1 coated microspheres that interacted as a function of time after the initiation of tethering, the slope of the line=−koff (s⁻¹) which is the inverse of the bond lifetime. The force acting on the tether bond was calculated from force balance equations as stated above and koff plotted as a function of these forces.
(§2) The use of beads with one uniform size and shape permits determination of the relationship between wall shear stress and the force directly acting on the GPIb alpha-VWF-A1 tether bond (Fb), a parameter difficult to estimate for discoid-shaped objects such as platelets. […] This antibody was made by immunizing Fischer 344 rats (3-4 months old) with recombinant WT protein. […] Spleens from animals with the highest antibody titers were harvested and splenocytes fused with Sp2/0 mouse myeloma cells (54).

[3] = biological target: B1; test: panel B: coated beads on surface-immobilized murine platelets in flow, ln of bead tethering events against time; shear stress 0.5 dyn cm-2; R2 0.96
Procedure: as §1, §2

[4] = biological target: B1; test: panel B: coated beads on surface-immobilized murine platelets in flow, ln of bead tethering events against time; shear stress 3.0 dyn cm-2; R2 0.98
Procedure: as §1, §2

[5] = biological target: T2, human platelet glycoprotein Ib alpha (GPIb alpha), on human platelets (human, UniProt P07359 17-652); test: human platelets perfused over coated mutant VWF-A1, wall shear rate 800 s-1; the sheet states that R563H corresponds to R1326H
T2 construct: whole, on cells; also called GPIbα; human GPIb alpha

[6] = biological target: B1; test: cell-based or functional assay
[7] = biological target: B1; test: platelet adhesion to coated recombinant VWF-A1, flow chamber, 800 s^-1
[8] = biological target: B1; test: coated beads on surface-immobilized murine platelets in flow, ln of bead tethering events against time; shear stress 1.0 dyn cm-2; R2 0.95
Procedure: as §1, §2

[9] = biological target: B1; test: coated beads on surface-immobilized murine platelets in flow, ln of bead tethering events against time; shear stress 0.5 dyn cm-2; R2 0.96
Procedure: as §1, §2

[10] = biological target: B1; test: coated beads on surface-immobilized murine platelets in flow, ln of bead tethering events against time; shear stress 2.0 dyn cm-2; R2 0.98
Procedure: as §1, §2

[11] = biological target: T2, human platelet glycoprotein Ib alpha …; test: human platelets attached to coated human VWF-A1 against wall shear rate
[12] = biological target: T2, human platelet glycoprotein Ib alpha …; test: interaction times of VWF-A1 coated beads on surface-immobilized platelets, wall shear stress 1 dyn cm^-2
Procedure: The duration of these interactions are measured by recording images from a Nikon X60 DIC objective (oil immersion) viewed at a frame rate of 235 fps (Speed Vision Technologies, San Diego, Calif.) and subjected to wall shear stresses (WSS) ranging from 0.5 to 3.0 dyn cm⁻². The cellular off-rates are determined by plotting the natural log of the number of VWF-A1 coated microspheres that interacted as a function of time after the initiation of tethering, the slope of the line=−koff (s⁻¹) which is the inverse of the bond lifetime. The force acting on the tether bond was calculated from force balance equations as stated above and koff plotted as a function of these forces.

T2 sequence (P07359 17-652): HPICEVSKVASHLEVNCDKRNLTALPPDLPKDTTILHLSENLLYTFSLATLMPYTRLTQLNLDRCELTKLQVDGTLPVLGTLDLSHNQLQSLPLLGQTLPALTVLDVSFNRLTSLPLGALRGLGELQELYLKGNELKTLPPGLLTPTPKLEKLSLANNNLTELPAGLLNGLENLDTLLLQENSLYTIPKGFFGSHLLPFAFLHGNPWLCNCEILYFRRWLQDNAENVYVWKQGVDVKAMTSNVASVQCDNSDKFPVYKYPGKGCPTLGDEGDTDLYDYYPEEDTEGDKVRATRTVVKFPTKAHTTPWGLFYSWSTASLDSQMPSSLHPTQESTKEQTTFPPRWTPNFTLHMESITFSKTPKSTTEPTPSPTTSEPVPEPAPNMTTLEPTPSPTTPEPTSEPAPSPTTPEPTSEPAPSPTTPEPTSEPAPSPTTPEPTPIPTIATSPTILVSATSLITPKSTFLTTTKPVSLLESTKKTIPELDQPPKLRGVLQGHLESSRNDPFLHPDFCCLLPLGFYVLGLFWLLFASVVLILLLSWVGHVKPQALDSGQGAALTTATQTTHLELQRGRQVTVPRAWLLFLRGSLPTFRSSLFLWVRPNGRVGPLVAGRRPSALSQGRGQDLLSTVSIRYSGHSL
T1 sequence (Q8CIZ8 other isoform, or with tags, fused parts or gaps limits assumed): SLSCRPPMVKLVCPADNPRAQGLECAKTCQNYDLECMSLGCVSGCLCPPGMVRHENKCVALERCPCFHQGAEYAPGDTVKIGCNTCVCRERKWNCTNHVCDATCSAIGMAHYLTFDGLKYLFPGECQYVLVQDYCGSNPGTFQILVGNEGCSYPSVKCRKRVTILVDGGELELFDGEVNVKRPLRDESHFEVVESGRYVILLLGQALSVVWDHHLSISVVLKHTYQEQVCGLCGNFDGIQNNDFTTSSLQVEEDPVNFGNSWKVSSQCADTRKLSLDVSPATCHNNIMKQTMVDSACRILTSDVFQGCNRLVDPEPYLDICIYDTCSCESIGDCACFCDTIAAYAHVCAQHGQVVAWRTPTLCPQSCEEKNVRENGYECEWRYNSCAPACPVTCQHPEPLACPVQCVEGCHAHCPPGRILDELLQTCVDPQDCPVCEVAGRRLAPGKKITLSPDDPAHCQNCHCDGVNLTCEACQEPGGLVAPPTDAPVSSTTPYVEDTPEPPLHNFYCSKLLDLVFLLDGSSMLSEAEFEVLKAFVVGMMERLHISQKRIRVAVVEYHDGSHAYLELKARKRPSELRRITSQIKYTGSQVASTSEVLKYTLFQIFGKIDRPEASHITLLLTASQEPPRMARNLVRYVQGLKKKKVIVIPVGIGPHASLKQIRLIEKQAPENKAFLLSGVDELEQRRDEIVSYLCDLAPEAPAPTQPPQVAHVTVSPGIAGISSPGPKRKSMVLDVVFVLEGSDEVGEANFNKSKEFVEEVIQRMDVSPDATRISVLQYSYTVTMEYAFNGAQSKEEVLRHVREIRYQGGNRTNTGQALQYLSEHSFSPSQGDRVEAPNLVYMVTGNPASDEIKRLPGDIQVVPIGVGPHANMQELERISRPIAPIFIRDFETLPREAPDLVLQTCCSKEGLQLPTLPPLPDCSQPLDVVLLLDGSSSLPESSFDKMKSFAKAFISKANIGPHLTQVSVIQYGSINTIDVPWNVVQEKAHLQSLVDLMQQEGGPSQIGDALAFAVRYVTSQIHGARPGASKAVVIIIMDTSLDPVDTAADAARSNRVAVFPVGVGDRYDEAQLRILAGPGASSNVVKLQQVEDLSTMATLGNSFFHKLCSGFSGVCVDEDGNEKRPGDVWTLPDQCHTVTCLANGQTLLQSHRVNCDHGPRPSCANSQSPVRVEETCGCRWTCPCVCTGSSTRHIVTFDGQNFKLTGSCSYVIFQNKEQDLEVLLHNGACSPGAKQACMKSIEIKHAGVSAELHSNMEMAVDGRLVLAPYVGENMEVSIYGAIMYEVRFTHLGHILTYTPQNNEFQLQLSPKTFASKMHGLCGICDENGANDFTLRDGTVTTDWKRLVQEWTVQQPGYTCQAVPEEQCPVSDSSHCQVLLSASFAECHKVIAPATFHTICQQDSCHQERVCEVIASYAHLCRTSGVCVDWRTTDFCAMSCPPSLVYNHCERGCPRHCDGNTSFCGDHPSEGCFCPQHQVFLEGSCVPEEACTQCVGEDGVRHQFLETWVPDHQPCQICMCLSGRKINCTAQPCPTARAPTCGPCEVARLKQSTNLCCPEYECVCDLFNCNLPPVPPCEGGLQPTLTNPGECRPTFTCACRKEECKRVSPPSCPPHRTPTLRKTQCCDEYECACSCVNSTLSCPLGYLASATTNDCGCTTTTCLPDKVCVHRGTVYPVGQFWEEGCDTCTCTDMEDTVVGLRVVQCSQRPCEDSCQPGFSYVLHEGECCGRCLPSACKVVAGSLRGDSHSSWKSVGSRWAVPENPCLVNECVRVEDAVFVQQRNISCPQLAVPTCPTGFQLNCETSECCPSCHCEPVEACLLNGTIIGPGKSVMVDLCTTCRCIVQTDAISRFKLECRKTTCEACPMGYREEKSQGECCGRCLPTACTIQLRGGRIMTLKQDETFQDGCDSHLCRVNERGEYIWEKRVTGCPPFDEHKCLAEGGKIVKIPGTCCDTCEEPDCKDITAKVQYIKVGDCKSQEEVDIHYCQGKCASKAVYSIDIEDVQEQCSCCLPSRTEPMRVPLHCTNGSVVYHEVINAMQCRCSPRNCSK

B1
binding result [1]: binds

B2
koff [2]: 8.4 s⁻¹ | koff [3]: 5.1 s⁻¹ | koff [4]: 9.9 s⁻¹

B3
binding result [5]: binds | translocation velocities of murine platelets, fold increase against the WT mouse protein, 800 s^-1 [6]: ~7 fold | fold reduction of platelet adhesion against the WT mouse protein [7]: ~5 fold

B4
koff [8]: 0.9 s⁻¹ | koff [9]: 0.7 s⁻¹ | koff [10]: 1.6 s⁻¹

B5
binding result [11]: no binding

B6
fold reduction in koff against the single mutant 1326H>R [12]: 2 fold | koff [12]: 8.5 s⁻¹

— US20090202429A1 (TRUSTEES OF COLUMBIA UNIVERSITY IN THE CITY OF NEW YORK, published 2009)
